Test results published in patent CN117024592A (WEST CHINA HOSPITAL SICHUAN UNIV, dated 2023).

Assays:
人源B7H3(细胞表面表达) [1] = target: T1, 人源B7H3(细胞表面表达) (human, UniProt Q5ZPR3 29-534); test: flow cytometry, hybridoma supernatant on cells expressing B7H3
T1 construct: whole, on cells; in the ADCC assay the protein is the endogenous B7H3 of A375 cells; also called CD276; 人B7H3
T1 sequence (looked up): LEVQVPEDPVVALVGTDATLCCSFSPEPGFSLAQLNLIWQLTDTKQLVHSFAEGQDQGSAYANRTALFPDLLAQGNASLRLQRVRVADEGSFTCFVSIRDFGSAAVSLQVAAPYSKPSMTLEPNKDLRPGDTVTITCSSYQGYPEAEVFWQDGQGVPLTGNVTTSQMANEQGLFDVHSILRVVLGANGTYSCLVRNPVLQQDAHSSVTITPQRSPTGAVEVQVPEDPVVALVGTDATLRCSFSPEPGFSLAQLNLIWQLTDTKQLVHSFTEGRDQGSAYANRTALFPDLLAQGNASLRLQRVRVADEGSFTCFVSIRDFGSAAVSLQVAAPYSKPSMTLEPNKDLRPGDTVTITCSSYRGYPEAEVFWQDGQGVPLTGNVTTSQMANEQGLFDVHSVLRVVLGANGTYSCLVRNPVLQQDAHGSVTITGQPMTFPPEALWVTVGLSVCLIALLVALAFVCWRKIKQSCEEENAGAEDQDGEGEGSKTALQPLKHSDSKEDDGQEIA

B7H3-His重组蛋白 = target: T2, B7H3-His重组蛋白 (human, UniProt Q5ZPR3 29-466); test: SPR (Biacore), B7H3-His amine-coupled to CM5 chip, antibody as analyte
T2 construct: extracellular domain; also called 携带His标签的重组B7H3蛋白; not shown: C-terminal His tag
T2 sequence (looked up): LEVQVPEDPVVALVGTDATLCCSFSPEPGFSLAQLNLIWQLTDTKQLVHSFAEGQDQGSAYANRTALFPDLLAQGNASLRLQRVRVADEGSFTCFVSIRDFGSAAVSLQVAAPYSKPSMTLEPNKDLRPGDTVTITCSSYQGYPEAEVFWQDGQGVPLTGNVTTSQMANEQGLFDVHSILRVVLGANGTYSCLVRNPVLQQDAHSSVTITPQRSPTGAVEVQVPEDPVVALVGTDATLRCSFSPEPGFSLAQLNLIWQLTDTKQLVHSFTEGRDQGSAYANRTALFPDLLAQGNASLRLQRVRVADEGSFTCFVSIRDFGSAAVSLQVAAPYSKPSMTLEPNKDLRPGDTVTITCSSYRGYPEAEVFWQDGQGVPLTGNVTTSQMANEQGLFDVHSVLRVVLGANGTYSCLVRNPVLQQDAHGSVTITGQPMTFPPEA

鼠源B7H3(稳定表达细胞株mB7H3-CHO) = target: T3, 鼠源B7H3(稳定表达细胞株mB7H3-CHO) (mouse, UniProt Q8VE98 29-316); test: flow cytometry, hybridoma supernatant on mB7H3-CHO cells
T3 construct: whole, on cells; also called 鼠B7H3蛋白
T3 sequence (looked up): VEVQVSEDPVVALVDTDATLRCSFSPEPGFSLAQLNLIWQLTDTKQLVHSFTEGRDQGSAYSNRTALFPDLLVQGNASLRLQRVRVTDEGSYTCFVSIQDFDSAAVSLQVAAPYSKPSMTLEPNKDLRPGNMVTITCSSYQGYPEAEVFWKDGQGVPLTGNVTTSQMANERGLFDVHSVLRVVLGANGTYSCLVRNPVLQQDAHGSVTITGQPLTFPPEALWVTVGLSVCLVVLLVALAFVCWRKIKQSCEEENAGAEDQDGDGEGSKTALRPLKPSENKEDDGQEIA

人源B7H3(细胞表面表达) [2] = target: T1, 人源B7H3(细胞表面表达); test: flow cytometry on CHO cells stably expressing B7H3

B1: 鼠源单克隆抗体J65(杂交瘤克隆J65上清) (antibody, V domains shown)
VH: EVQLQESGGDLVKPGGSLKLSCEASGFTFSSHGMSWIRQTPDKRLDWVATISGGGRYSYYPDNIQGRFTISRDNAKDTLYLQMSSLQSEDTALYYCARHWDGYLDYWGQGTTLTVSS
VL: DIVMTQTPASLSASVGETVTITCRPSENIYSYLAWYQQKQGKSPQLLVYNAKTLTEGAPSRFSGSGSGTQFSLKINSLQPEDFGIYYCQHHYGPPPYTFGGGTKVEIK
notes: Mouse monoclonal antibody as secreted by the hybridoma (supernatant used in flow cytometry); also called 杂交瘤J65; 单抗J65
人源B7H3(细胞表面表达) [1]
  binding result: binds
B7H3-His重组蛋白
  binding result: binds
鼠源B7H3(稳定表达细胞株mB7H3-CHO)
  binding result: no binding

B2: 重组鼠源单抗J65(mJ65) (antibody, V domains shown)
VH: B1 VH
VL: B1 VL
notes: also called 重组鼠单抗mJ65
人源B7H3(细胞表面表达) [2]
  binding result: binds

B3: 嵌合抗体J65(cJ65) (antibody, V domains shown)
VH: B1 VH
VL: B1 VL
notes: also called cJ65-1
人源B7H3(细胞表面表达) [2]
  binding result: binds

B4: 人源化单抗huJ65-2 (antibody, V domains shown)
VH: EVQLVESGGGLVQPGGSLRLSCEASGFTFSSHGMSWVRQAPGKGLEWVATISGGGRYSYYPDNIQGRFTISRDNAKNSLYLQMNSLRAEDTAVYYCARHWDGYLDYWGQGTLVTVSS
VL: DIQMTQSPSSLSASVGDRVTITCRPSENIYSYLAWYQQKPGKAPKLLVYNAKTLTEGAPSRFSGSGSGTDFTLTISSLQPEDFATYYCQHHYGPPPYTFGQGTKVEIK
notes: also called hJ65-2; 人源化抗体2
B7H3-His重组蛋白
  binding result: binds
人源B7H3(细胞表面表达) [2]
  binding result: binds
